{"source": "the DeepSol protein solubility set"}
{"experiment": "soluble on expression in E. coli; label from the status in PepcDB or PDB records"}
{"sequence": "MYIECEGILKRYFKDVPEIIKRACKFAREKLGEGSHGFSHTLRVLAIALHIGSKENADLEILALAALLHDIARPLEDKGVIRDHAIEGAKIAKEFLSNYEKVEEVAHAIASHRFSNDVEPRTLEAKILSDADKIDALGAIGIARVFIYSCEKERSIEDSIKHFEEKILKLKDLMYTKTGKEIAEKRHKVVKWYVETLKSELREFLYLEHHHHHH", "soluble on expression in E. coli": "soluble"}
{"sequence": "MIESVLLLVSGLPGSGKSTLARGMAEALAWPCLDKDDFLEALFDARGIGDAAWRRALSREADSRFLAALQAAPRAVACSWWRHPRGEGGSGTPIGGLARPGRLVLELHCRCPAELAAARFARRVRHPGHLDAQRDPGALSLQLRRAERLGPLGLGQCLILDASVQTDLSGALAWTRDALAAGALADPPRHPLEHHHHHH", "soluble on expression in E. coli": "not soluble"}
{"sequence": "MTDVALSQDVSRFLRYLGVERQLSPITLLNYQRQLDAIIALAGETGLKSWQQCDAAIVRSFAVRSRRKGLGPASLALRLSALRSFFDWLVSQGELKANPAKGVSAPKAPRHLPKNIDVDDVNRLLDIDLNDPLAVRDRAMLEVMYGAGLRLSELVGLDIKHLDLDTGEVWVMGKGSKERRLPIGRNAVTWIEHWLDLRGLFASDEEALFLSKLGKRISARNVQKRFAEWGIKQGLNSHVHPHKLRHSFATHMLESSGDLRGVQELLGHANLSTTQIYTHLDFQHLASVYDAAHPRAKRGK", "soluble on expression in E. coli": "not soluble"}
{"sequence": "MGSDKIHHHHHHLEFWDGLSGGKAITPLKKEEIKHIEKQLGSRLPKSYLKKMEEQNGGDIAFNSVVVNFKNSWSDEETGLYLPLYEFMPLTIGKFVENTSVLNEWGLAGKKMIFGEGEGSYLWYFDFDENPKNPEVWCLDISDETAHLVAESFEALLPNLKKRANDDVLTHEDVFADYPSMCEIRETIKGTDEDARLEAYRMWLTRCEDLEGLIAELRQRVEHSDEEDELDSYAELLAEVLINYTSEEFMTYEEAIALFNKKEDVSDLSHVIVQLESEV", "soluble on expression in E. coli": "not soluble"}
{"sequence": "MGSDKIHHHHHHMAKFIMVVGTSSNSGKTVLVSGICRMLSNKGYKVAPFKSQNMSLNSRVSVEDGEIAVAQYTQAMAARAEPSVHFNPILLKPKGNFVSQVIVHGNPYEDKDYNEYRSKKDDFLVKIKESIDYLDKNYDYVVIEGAGSCCEINLLNDDIANLKVAEIAGADAILVSDIDRGGVFASIYGTVQLLPENWKKLLKGFVINKFRGNIDVLKDGFEKIEELTNIPVIGTIPYDETLVLPEEDSQALDGKRVFGNLKSPIEVNVVKFSKIANFTDVDPFSSDCLMKYIDFNENITGDILILPGTRCSTVEMDLMKKYGMDKKILEFVENGGIVLGICGGYQALGKMLFDEDFSEGDVGTISGLGLFDMETTFGNKKAIKNSTGKISIFNQNFDVSGYELHEGYSVSNETPLISLSKGFGNCGDSYDGSFKMIGDSYIFGTYFHGILENFEFRNYLVNLARSKKNLSKIEDDTYAELFNENMDKLSKIIEENLDFSKIIG", "soluble on expression in E. coli": "not soluble"}
{"sequence": "MAHHHHHHMQNLSPACTFNKNEEKIKCPSSTKLGCSDGTKIIQHEINERNMMPEIPNVSLTDENDFTFNKKRHVSSIPKNNNEYWVYPSSQQFYNSLIRKNKDIDKNYIDAVVSVHNEVNEESWKQILKYEHMHKRSCTDVTLHRFLGKFDDLSIKARFRSIFSRGKKKKNNNNNKKSVKGFFFMGRPFDRHDWYVNRCGTQVKYILDYYNDESINDDKNIYIDVRPAMNSFSNVWDRLRYPFYEFYFKYVKKDELFK", "soluble on expression in E. coli": "not soluble"}
{"sequence": "MERGPLIFSASIGNGHNQAAKALQVEFQNKGYQPEIIDTFYSLSPALHKFMLTSYVNLLKVGPRIWQKIYFQAEKYPLFLFLDQFATFFVESLHATVKSNRCSFLVSTHPFVTAFLVRLKSKKQLNLPLYTVITDFVLHPAYLRPEIDGYFTSDPNFTDFAKLNNVSDDRFFPTGIPIPNLESIDQPKWKVRNDLGLDPQRKVLIIAGGGIGLTNYAQVIRALECLPEPIQLLCMIGHNYQVKEKISRIKSKHELKVIEFTDKFLLYLKASDAILSKAGGLTMAESLVCETPIIIHQPVPGHEEHNAKFLIDAGAALRVKGSKEIPTTIKRVLYEEACFGPMIENARKLKKPNAANEIVEQMLLLVKEQQHAFRLEHHHHHH", "soluble on expression in E. coli": "soluble"}
{"sequence": "MNSDVIKGKWKQLTGKIKERWGDLTDDDLQAADGHAEYLVGKLQERYGWSKERAEQEVRDFSDRL", "soluble on expression in E. coli": "soluble"}
